Laboratory results as given in patent CN115029318A.

Experiments:
[1] = target: CD3 on T cells of human PBMC (human); assay: cell-based or functional assay
[2] = target: EGFR (epidermal growth factor receptor) on human glioma U87 cells (human) (UniProt P00533); assay: cell-based or functional assay

B1: EGFR-CD3-EGFR MsAb (bispecific antibody, part only; not given: linkers and His tag, not shown: small tags and cut ends)
chain, part: ESGGGLTQPGGSLRLSCAASGMSTGMWHRPTPGRERELIALKAPWPGTAPSSWRFTISRDNASNTVYLQMANLNTEDTAVYFCHAGGLLEWELLVVAASWGQGTVSSQVKLEESGSELVQPGGPLRLSCAASANIFSRTEDDWIWYRQAPGKQRAFVAWITGLSTKIGRFTISVDKSKGTIYLQMNALKPEDTAVYYANAAEHASKVVEVSTSWGQGTVVTVSSESGGGLTQPGGSLRLSCAASGMSTGMWHRPTPGRERELIALKAPWPGTAPSSWRFTISRDNASNTVYLQMANLNTEDTAVYFCHAGGLLEWELLVVAASWGQGTVSS
[1]
  细胞杀伤率 (killing of GFP-labelled U87 cells by human PBMC, effector:target 5:1, 50 ng/mL antibody, 24 h, 7-AAD, high-content imaging): > 80%
[2]
  细胞杀伤率 (killing of GFP-labelled U87 cells by human PBMC, effector:target 5:1, 50 ng/mL antibody, 24 h, 7-AAD, high-content imaging): > 80%
